Measurements as given in patent US20250388704A1 (Xencor, published 2025).

Key:
[1] = molecular target: T1, human PSMA on the surface of prostate cancer cell lines (C42B / C42B-NLR, 22Rv1 / 22Rv1-NLR, PSMA-transfected … (human, UniProt Q04609 1-750)); experiment: flow cytometry on C42B-NLR (PSMA hi) cells, 30 min at 37 degrees, detection with anti-human-Ig-FITC
T1 construct: whole, on cells; also called Prostate Specific Membrane Antigen

[2] = molecular target: T2, CD28 antigen used for the affinity determinations (human, UniProt P10747 19-152, limits assumed); experiment: Octet (BLI), apparent dissociation constant (KDapp) of the bivalent mAb for CD28
T2 construct: Octet/BLI is described only for the bivalent mAbs

[3] = molecular target: T1, human PSMA on the surface of prostate …; experiment: binding to C4-2B (C42B, PSMA^hi) cells, MFI against concentration, least squares fit
[4] = molecular target: T2, CD28 antigen used for the affinity …; experiment: CD28 binding affinity of the scFv arm (monovalent, scFv in 1+1 Fab-scFv-Fc bsAb, FIG. 20); method not stated

Binder	binding result [1]	EC50 (read off the curve) [3]	further results
PSMA x CD28 bsAb with D01v2 PSMA binding domain and 1A7_H1_L1.71 CD28 binding domain (Platform X) (bispecific antibody, D01v2 is D01 with the degradation liabilities removed) heavy: EVQLVESGGDLVQPGGSLRLSCAASGFTFNNYNMNWVRQAPGKGLEWVSHISTSSSNKYYADSVKGRFSISRDIAKNSMYLQMNSLRDEDTAVYYCAREGVGADYGDYYYYGMDVWGQGTTVTVSSASTKGPSVFPLAPSSKSTSGGTAALGCLVKDYFPEPVTVSWNSGALTSGVHTFPAVLQSSGLYSLSSVVTVPSSSLGTQTYICNVNHKPSDTKVDKKVEPKSCDKTHTCPPCPAPPVAGPSVFLFPPKPKDTLMISRTPEVTCVVVDVKHEDPEVKFNWYVDGVEVHNAKTKPREEEYNSTYRVVSVLTVLHQDWLNGKEYKCKVSNKALPAPIEKTISKAKGQPREPQVYTLPPSREEMTKNQVSLTCDVSGFYPSDIAVEWESDGQPENNYKTTPPVLDSDGSFFLYSKLTVDKSRWEQGDVFSCSVMHEALHNHYTQKSLSLSPGK scFv-Fc: not shown light: QSVLTQPASVSGSPGQSITISCTGTSSDVGGYNYVSWYQQHPGKAPKLMIYEVSNRPSGVSNRFSGSKSGNTASLTISGLQAEDEADYYCSSYTSSYTYVFGTGTKLTVLGQPKAAPSVTLFPPSSEELQANKATLVCLISDFYPGAVTVAWKADSSPVKAGVETTTPSKQSNNKYAASSYLSLTPEQWKSHRSYSCQVTHEGSTVEKTVAPTECS	binds	–	–
PSMA x CD28 bsAb with D01 PSMA binding domain and 1A7_H1_L1.71 CD28 binding domain (Platform X) (bispecific antibody) heavy: EVQLVESGGDLVQPGGSLRLSCAASGFTFNNYNMNWVRQAPGKGLEWVSHISTSSSNKYYADSVKGRFSISRDIAKNSMYLQMNSLRDEDTAVYYCARDGVGADYGDYYYYGMDVWGQGTTVTVSSASTKGPSVFPLAPSSKSTSGGTAALGCLVKDYFPEPVTVSWNSGALTSGVHTFPAVLQSSGLYSLSSVVTVPSSSLGTQTYICNVNHKPSDTKVDKKVEPKSCDKTHTCPPCPAPPVAGPSVFLFPPKPKDTLMISRTPEVTCVVVDVKHEDPEVKFNWYVDGVEVHNAKTKPREEEYNSTYRVVSVLTVLHQDWLNGKEYKCKVSNKALPAPIEKTISKAKGQPREPQVYTLPPSREEMTKNQVSLTCDVSGFYPSDIAVEWESDGQPENNYKTTPPVLDSDGSFFLYSKLTVDKSRWEQGDVFSCSVMHEALHNHYTQKSLSLSPGK scFv-Fc: not shown light: QSVLTQPASVSGSPGQSITISCTGTSSDVGGYNYVSWYQQHPGKAPKLMIYEVSNRPSGVSNRFSGSKSGNTASLTISGLQAEDEADYYCSSYTSSYTYVFGTGTKLTVLGQPKAAPSVTLFPPSSEELQANKATLVCLISDFYPGAVTVAWKADSSPVKAGVETTTPSKQSNNKYAASSYLSLTPEQWKSHRSYSCQVTHEGSTVEKTVAPTECS	binds	–	–
PSMA x CD28 bsAb with A11 PSMA binding domain and 1A7_H1_L1.71 CD28 binding domain (Platform X) (bispecific antibody) heavy: QVQLQESGGDVVQPGRSLRLSCAASGFSFSGYGLHWVRQAPGRGLEWVTLISYDGSNKYYADSVKGRFTISRDNSKNTLYLQMNSLRAEDTAVYYCAKTTVSDPYYYGMDVWGQGTTVTVSSASTKGPSVFPLAPSSKSTSGGTAALGCLVKDYFPEPVTVSWNSGALTSGVHTFPAVLQSSGLYSLSSVVTVPSSSLGTQTYICNVNHKPSDTKVDKKVEPKSCDKTHTCPPCPAPPVAGPSVFLFPPKPKDTLMISRTPEVTCVVVDVKHEDPEVKFNWYVDGVEVHNAKTKPREEEYNSTYRVVSVLTVLHQDWLNGKEYKCKVSNKALPAPIEKTISKAKGQPREPQVYTLPPSREEMTKNQVSLTCDVSGFYPSDIAVEWESDGQPENNYKTTPPVLDSDGSFFLYSKLTVDKSRWEQGDVFSCSVMHEALHNHYTQKSLSLSPGK scFv-Fc: not shown light: SYELTQPPSVSVAPGQTARITCGGNNIGSKSVHWYQQKPGQAPVLVVYDDSDRPSGIPERFSGTNSGNTATLTISRAEAGDEADYYCQVWDSSSDHVVFGGGTKLTVLGQPKAAPSVTLFPPSSEELQANKATLVCLISDFYPGAVTVAWKADSSPVKAGVETTTPSKQSNNKYAASSYLSLTPEQWKSHRSYSCQVTHEGSTVEKTVAPTECS	binds	–	–
XENP38938 PSMA (F07) x CD28 (180nM) (bispecific antibody, copies: 1 + 1 + 1) heavy: not shown scFv-Fc: not shown light: SYELTQPPSVSVAPGQTARITCGGNNIGSKSVHWYQQKPGQAPVLVVYDDSDRPSGIPERFSGSNSGNTATLTISRVEAGDEADYYCQVWDSSTDHVVFGGGTKLTVLGQPKAAPSVTLFPPSSEELQANKATLVCLISDFYPGAVTVAWKADSSPVKAGVETTTPSKQSNNKYAASSYLSLTPEQWKSHRSYSCQVTHEGSTVEKTVAPTECS	binds	–	–
XENP28428 (antibody, V domains shown, Bivalent IgG1 mAb with Fc gamma R ablation variants, made in HEK293E; also called anti-CD28 mAb based on clone 1A7; parental anti-CD28 mAb 1A7; copies: 2 + 2) VH: EVQLLESGGGLVQPGGSLRLSCAASGFTFSSYAMSWVRQAPGKGLEWVSTISGSGDSTYYADSVKGRFTISRDNSKNTLYLQMNSLRAEDTAVYYCAKSGPGLRQVGFDYWGQGTLVTVSS VL: not shown	–	–	Kd [2]: 14.5 nM
XENP38934 PSMA (F02) x CD28 (180nM) (bispecific antibody, copies: 1 + 1 + 1) heavy: EVQLLESGPGLVKPSETLSLTCTVSGGSIISYYWSWIRQPAGKGLEWIGRIYSSGSTNYNPSLKSRVTMSVDTSKNQFSLKLSSVTAADTAVYYCAKVGVWPGAFDIWGQGTMVTVSSASTKGPSVFPLAPSSKSTSGGTAALGCLVKDYFPEPVTVSWNSGALTSGVHTFPAVLQSSGLYSLSSVVTVPSSSLGTQTYICNVNHKPSDTKVDKKVEPKSCDKTHTCPPCPAPPVAGPSVFLFPPKPKDTLMISRTPEVTCVVVDVKHEDPEVKFNWYVDGVEVHNAKTKPREEEYNSTYRVVSVLTVLHQDWLNGKEYKCKVSNKALPAPIEKTISKAKGQPREPQVYTLPPSREEMTKNQVSLTCDVSGFYPSDIAVEWESDGQPENNYKTTPPVLDSDGSFFLYSKLTVDKSRWEQGDVFSCSVMHEALHNHYTQKSLSLSPGK scFv-Fc: not shown light: not shown	binds	–	–
XENP39234 PSMA (A10v2) x CD28 (37 nM) (bispecific antibody, Member of group m19) heavy: not shown scFv-Fc: not shown light: SYELMQPPSVSVSPGQTARITCSGDALPKQYAYWYQQKPGQAPVLVIYKDSERPSGIPVRFSGSSSGTTVTLTITGVQAEDEADYYCQSADSSGTYVFGTGTKVTVLGQPKAAPSVTLFPPSSEELQANKATLVCLISDFYPGAVTVAWKADSSPVKAGVETTTPSKQSNNKYAASSYLSLTPEQWKSHRSYSCQVTHEGSTVEKTVAPTECS	–	~3 nM	–
C28PB318.002 PSMA (A10v2) x CD28 (96 nM) (bispecific antibody) scFv-Fc: not shown heavy: not shown light: SYELMQPPSVSVSPGQTARITCSGDALPKQYAYWYQQKPGQAPVLVIYKDSERPSGIPVRFSGSSSGTTVTLTITGVQAEDEADYYCQSADSSGTYVFGTGTKVTVLGQPKAAPSVTLFPPSSEELQANKATLVCLISDFYPGAVTVAWKADSSPVKAGVETTTPSKQSNNKYAASSYLSLTPEQWKSHRSYSCQVTHEGSTVEKTVAPTECS	–	~2 nM	–
XENP39233 PSMA (A10v2) x CD28 (96 nM) (bispecific antibody, Member of group m19) heavy: not shown scFv-Fc: not shown light: SYELMQPPSVSVSPGQTARITCSGDALPKQYAYWYQQKPGQAPVLVIYKDSERPSGIPVRFSGSSSGTTVTLTITGVQAEDEADYYCQSADSSGTYVFGTGTKVTVLGQPKAAPSVTLFPPSSEELQANKATLVCLISDFYPGAVTVAWKADSSPVKAGVETTTPSKQSNNKYAASSYLSLTPEQWKSHRSYSCQVTHEGSTVEKTVAPTECS	–	~2 nM	–
C28PB294.002 PSMA (A10v2) x CD28 (37 nM) (bispecific antibody) scFv-Fc: not shown heavy: not shown light: SYELMQPPSVSVSPGQTARITCSGDALPKQYAYWYQQKPGQAPVLVIYKDSERPSGIPVRFSGSSSGTTVTLTITGVQAEDEADYYCQSADSSGTYVFGTGTKVTVLGQPKAAPSVTLFPPSSEELQANKATLVCLISDFYPGAVTVAWKADSSPVKAGVETTTPSKQSNNKYAASSYLSLTPEQWKSHRSYSCQVTHEGSTVEKTVAPTECS	–	~3 nM	–
C28PB330.002 PSMA (A10v2) x CD28 (180 nM) (bispecific antibody) first monomer: not shown second monomer: not shown light chain: SYELMQPPSVSVSPGQTARITCSGDALPKQYAYWYQQKPGQAPVLVIYKDSERPSGIPVRFSGSSSGTTVTLTITGVQAEDEADYYCQSADSSGTYVFGTGTKVTVLGQPKAAPSVTLFPPSSEELQANKATLVCLISDFYPGAVTVAWKADSSPVKAGVETTTPSKQSNNKYAASSYLSLTPEQWKSHRSYSCQVTHEGSTVEKTVAPTECS	–	~3 nM	–
XENP37902 (bispecific antibody, 1+1 Fab-scFv-Fc format; also called prototype PSMA x CD28 bsAb; 1A7_H1.14_L1) heavy: EVQLVQSGAEVKKPGASVKVSCKTSGYTFTEYTIHWVRQAPGQSLEWMGNINPNNGGTTYNQKFQGRVTITVDKSTSTAYMELSSLRSEDTAVYYCAAGWNFDYWGQGTLVTVSSASTKGPSVFPLAPSSKSTSGGTAALGCLVKDYFPEPVTVSWNSGALTSGVHTFPAVLQSSGLYSLSSVVTVPSSSLGTQTYICNVNHKPSDTKVDKKVEPKSCDKTHTCPPCPAPPVAGPSVFLFPPKPKDTLMISRTPEVTCVVVDVKHEDPEVKFNWYVDGVEVHNAKTKPREEEYNSTYRVVSVLTVLHQDWLNGKEYKCKVSNKALPAPIEKTISKAKGQPREPQVYTLPPSREEMTKNQVSLTCDVSGFYPSDIAVEWESDGQPENNYKTTPPVLDSDGSFFLYSKLTVDKSRWEQGDVFSCSVMHEALHNHYTQKSLSLSPGK scFv-Fc: not shown light: DIVMTQSPDSLAVSLGERATLSCRASQDVGTAVDWYQQKPDQSPKLLIYWASTRHTGVPDRFTGSGSGTDFTLTISSLQAEDVAVYFCQQYNSYPLTFGAGTKVEIKRTVAAPSVFIFPPSDEQLKSGTASVVCLLNNFYPREAKVQWKVDNALQSGNSQESVTEQDSKDSTYSLSSTLTLSKADYEKHKVYACEVTHQGLSSPVTKSFNRGEC	–	–	Kd [4]: 230 nM
XENP37903 (bispecific antibody, 1+1 Fab-scFv-Fc format; also called prototype PSMA x CD28 bsAb; 1A7_H1.14_L1.71) heavy: EVQLVQSGAEVKKPGASVKVSCKTSGYTFTEYTIHWVRQAPGQSLEWMGNINPNNGGTTYNQKFQGRVTITVDKSTSTAYMELSSLRSEDTAVYYCAAGWNFDYWGQGTLVTVSSASTKGPSVFPLAPSSKSTSGGTAALGCLVKDYFPEPVTVSWNSGALTSGVHTFPAVLQSSGLYSLSSVVTVPSSSLGTQTYICNVNHKPSDTKVDKKVEPKSCDKTHTCPPCPAPPVAGPSVFLFPPKPKDTLMISRTPEVTCVVVDVKHEDPEVKFNWYVDGVEVHNAKTKPREEEYNSTYRVVSVLTVLHQDWLNGKEYKCKVSNKALPAPIEKTISKAKGQPREPQVYTLPPSREEMTKNQVSLTCDVSGFYPSDIAVEWESDGQPENNYKTTPPVLDSDGSFFLYSKLTVDKSRWEQGDVFSCSVMHEALHNHYTQKSLSLSPGK scFv-Fc: not shown light: DIVMTQSPDSLAVSLGERATLSCRASQDVGTAVDWYQQKPDQSPKLLIYWASTRHTGVPDRFTGSGSGTDFTLTISSLQAEDVAVYFCQQYNSYPLTFGAGTKVEIKRTVAAPSVFIFPPSDEQLKSGTASVVCLLNNFYPREAKVQWKVDNALQSGNSQESVTEQDSKDSTYSLSSTLTLSKADYEKHKVYACEVTHQGLSSPVTKSFNRGEC	–	–	Kd [4]: 37 nM
